From US20200024330A1

Assays:
Experiment in all cases: cell-based or functional assay
[1] = target: HIV-1 JR-CSF Env Q422A (HIV-1 (isolate JR-CSF)) (UniProt P20871)
[2] = target: HIV-1 JR-CSF Env S306A (HIV-1 JR-CSF) (UniProt P20871)
[3] = target: HIV-1 JR-CSF Env I420A (HIV-1 (isolate JR-CSF)) (UniProt P20871)
[4] = target: HIV-1 APV6 envelope glycoprotein (Env) (HIV-1)
[5] = target: HIV-1 JR-CSF Env I423A (HIV-1 (isolate JR-CSF)) (UniProt P20871)
[6] = target: Env of the clade AG HIV-1 pseudoviruses of the cross-clade 162-pseudovirus panel (n = 10)
[7] = target: HIV-1 JR-CSF Env K421A (HIV-1 (isolate JR-CSF)) (UniProt P20871)
[8] = target: HIV-1 JR-CSF Env N355A (HIV-1 isolate JR-CSF) (UniProt P20871)
[9] = target: HIV-1 JR-CSF Env R304A (HIV-1 JR-CSF) (UniProt P20871)
[10] = target: HIV-1 APV13 envelope glycoprotein (Env) (HIV-1)
[11] = target: HIV-1 JR-CSF Env T319A (HIV-1 isolate JR-CSF) (UniProt P20871)
[12] = target: HIV-1 92RW020 envelope glycoprotein (Env) (HIV-1)
[13] = target: HIV-1 JR-CSF Env T320A (HIV-1 isolate JR-CSF) (UniProt P20871)
[14] = target: HIV-1 JR-CSF Env N392Q (HIV-1 (isolate JR-CSF)) (UniProt P20871)
[15] = target: HIV-1 Env of isolate MGRM-C-026 (HIV-1)
[16] = target: HIV-1 Env of isolate JR-CSF (HIV-1) (UniProt P20871)
[17] = target: HIV-1 JR-CSF Env I323A (HIV-1 isolate JR-CSF) (UniProt P20871)
[18] = target: HIV-1 JR-CSF Env N396A (HIV-1 (isolate JR-CSF)) (UniProt P20871)
[19] = target: HIV-1 JR-CSF Env W395A (HIV-1 (isolate JR-CSF)) (UniProt P20871)
[20] = target: HIV-1 JR-CSF Env H330A (HIV-1 isolate JR-CSF) (UniProt P20871)
[21] = target: HIV-1 JR-CSF Env L416A (HIV-1 (isolate JR-CSF)) (UniProt P20871)
[22] = target: HIV-1 92BR020 envelope glycoprotein (Env) (HIV-1)
[23] = target: Env of the clade B HIV-1 pseudoviruses of the cross-clade 162-pseudovirus panel (n = 31)
[24] = target: HIV-1 JR-CSF Env I326A (HIV-1 isolate JR-CSF) (UniProt P20871)
[25] = target: Env of all HIV-1 pseudoviruses of the cross-clade 162-pseudovirus panel (n = 162)
[26] = target: HIV-1 JR-CSF Env N301A (HIV-1 JR-CSF) (UniProt P20871)
[27] = target: HIV-1 JR-CSF Env I307A (HIV-1 JR-CSF) (UniProt P20871)
[28] = target: HIV-1 JR-CSF Env N262A (HIV-1 JR-CSF) (UniProt P20871)
[29] = target: HIV-1 JR-CSF Env R350A (HIV-1 isolate JR-CSF) (UniProt P20871)
[30] = target: Env of the clade F HIV-1 pseudoviruses of the cross-clade 162-pseudovirus panel (n = 15)
[31] = target: HIV-1 JR-CSF Env S199A (HIV-1 JR-CSF) (UniProt P20871)
[32] = target: HIV-1 JR-CSF Env T413A (HIV-1 (isolate JR-CSF)) (UniProt P20871)
[33] = target: HIV-1 JR-CSF Env S393A (HIV-1 (isolate JR-CSF)) (UniProt P20871)
[34] = target: HIV-1 MGRM-C-028 envelope glycoprotein (Env) (HIV-1)
[35] = target: HIV-1 JR-CSF Env F210A (HIV-1 JR-CSF) (UniProt P20871)
[36] = target: HIV-1 Env of isolate 92TH021 (HIV-1)

Binder	Fold IC50 increase relative to wild-type [1]	Fold IC50 increase relative to wild-type [2]	Fold IC50 increase relative to wild-type [3]	Fold IC50 increase relative to wild-type [5]	Median IC50 against viruses neutralized with an IC50 <50 µg/ml [6]	Fold IC50 increase relative to wild-type [7]	Fold IC50 increase relative to wild-type [8]	Fold IC50 increase relative to wild-type [9]	Fold IC50 increase relative to wild-type [11]	Fold IC50 increase relative to wild-type [13]	Fold IC50 increase relative to wild-type [14]	Fold IC50 increase relative to wild-type [17]	Fold IC50 increase relative to wild-type [18]	Fold IC50 increase relative to wild-type [19]	Fold IC50 increase relative to wild-type [20]	Fold IC50 increase relative to wild-type [21]	Median IC50 against viruses neutralized with an IC50 <50 µg/ml [23]	Fold IC50 increase relative to wild-type [24]	Median IC50 against viruses neutralized with an IC50 <50 µg/ml [25]	Fold IC50 increase relative to wild-type [26]	also measured
PGT-135 (antibody, V domains shown) VH: QLQMQESGPGLVKPSETLSLSCTVSGDSIRGGEWGDKDYHWGWVRHSAGKGLEWIGSIHWRGTTHYKESLRRRVSMSIDTSRNWFSLRLASVTAADTAVYFCARHRHHDVFMLVPIAGWFDVWGPGVQVTVSS VL: EIVMTQSPDTLSVSPGETVTLSCRASQNINKNLAWYQYKPGQSPRLVIFETYSKIAAFPARFVASGSGTEFTLTINNMQSEDVAVYYCQQYEEWPRTFGQGTKVDIK	0.8 fold	0.4 fold	1.4 fold	0.1 fold	27.4 µg/mL	0.3 fold	0.8 fold	0.7 fold	0.4 fold	0.5 fold	> 250 fold	1.5 fold	1 fold	0.6 fold	> 250 fold	1.2 fold	0.15 µg/mL	1.2 fold	0.17 µg/mL	0.5 fold	IC50 neutralization [4]: > 10 µg/mL; IC50 neutralization [10]: 0.545 µg/mL; IC50 neutralization [12]: 0.157 µg/mL; Primary Neutralization Index (B cell culture well 5343 B8) [15]: 6.5; Primary Neutralization Index (B cell culture well 5344 E16) [15]: 3.6; Primary Neutralization Index (B cell culture well 5343 B8) [16]: 1.8; Primary Neutralization Index (B cell culture well 5344 E16) [16]: 1.5; IC50 neutralization [22]: 0.104 µg/mL; Fold IC50 increase relative to wild-type [27]: 0.3 fold; Fold IC50 increase relative to wild-type [28]: 2.1 fold; Fold IC50 increase relative to wild-type [29]: 0.9 fold; Median IC50 against viruses neutralized with an IC50 <50 µg/ml [30]: 0.21 µg/mL; Fold IC50 increase relative to wild-type [31]: 0.3 fold; Fold IC50 increase relative to wild-type [32]: 0.3 fold; Fold IC50 increase relative to wild-type [33]: 0.9 fold; IC50 neutralization [34]: 2.16 µg/mL; Fold IC50 increase relative to wild-type [35]: 1.3 fold
PGT-131 (antibody, V domains shown) VH: QVQLQESGPGLVKPSETLSLTCTVSGDSINTGHHYWGWVRQVPGKGPEWIAHIHYNTAVLHNPALKSRVTISIFTLKNLITLSLSNVTAADTAVYFCVRSGGDILYYIEWQKPHWFYPWGPGILVTVSS VL: QSALTQPPSASGSLGQSLTISCSGTGSDIGSWNFVSWYQQFPGRAPNLIIFEVNRRRSGVPDRFSGSKSGNTASLTVSGLRSEDEAEYFCSSLSGRWDIVFGGGTKVTVL	1.9 fold	0.7 fold	153 fold	> 80 fold	0.18 µg/mL	11 fold	2.3 fold	1.5 fold	0.9 fold	4.5 fold	0.4 fold	38 fold	0.9 fold	0.5 fold	0.5 fold	1 fold	0.07 µg/mL	1.7 fold	0.52 µg/mL	> 170 fold	Primary Neutralization Index (B cell culture well 5136 H1) [15]: 1.2; Primary Neutralization Index (B cell culture well 5136 H1) [16]: 6.2; Primary Neutralization Index (B cell culture well 5136 H1) [36]: 354; Fold IC50 increase relative to wild-type [27]: > 170 fold; Fold IC50 increase relative to wild-type [28]: 0.4 fold; Fold IC50 increase relative to wild-type [29]: 1.3 fold; Median IC50 against viruses neutralized with an IC50 <50 µg/ml [30]: 0.55 µg/mL; Fold IC50 increase relative to wild-type [31]: 1.6 fold; Fold IC50 increase relative to wild-type [32]: 0.6 fold; Fold IC50 increase relative to wild-type [33]: 1.1 fold; Fold IC50 increase relative to wild-type [35]: 1 fold
